From patent US6716574B2, “Osp-C derived peptide fragments” (Dako A/S, priority 1996, dated 2004) come the findings set out here.

What all share (type): binding, human
Test [1] relates to IgM antibodies to OspC in sera from patients. The test is described as follows: Indirect streptavidin ELISA for IgM antibodies against carboxy-terminal OspC deca-peptide (peptide ELISA). As for the experimental part:
Indirect Streptavidin ELISA for IgM Antibodies against Carboxy-terminal OspC Deca-peptide (Peptide ELISA)
Flat-bottom microdilution plates (Maxisorb; Nunc, Roskilde, Denmark) were coated with 100 μl of streptavidin (ZYMED, S. Avidinii) 2.5 μg/ml in citrate buffer (pH 5) and incubated overnight at 4° C. The plates were washed four times a one minute with phosphate buffered saline (PBS) containing 0.5 M NaCl and 0.1% (vol/vol) Tween 20 (pH 7.2), 100 μl of the biotinylated synthetic peptide
(prodiluted in PBS containing 0.37 M NaCl, 0.5% (vol/vol) Tween 20, and 1% (wt/vol) milk powder (pH 7.0)) was added to the wells and the plates were incubated overnight at 4° C. The plates were washed four times a one minute with PBS containing 0.5 M NaCl and 0.1% (vol/vol) Tween 20 (pH 7.2), and 100 μl of test serum diluted 1:200 in PBS containing 0.7 M NaCl, 0.1% (vol/vol) Tween 20, and 1% (wt/vol) milkpowder (pH 7, 2) was added to the wells and incubated for 2 hours at 20° C. on a rocker platform. The plates were washed four times à one minute with PBS containing 0.5 M NaCl and 0.1% (vol/vol) Tween 20 (pH 7.2), and 100 μl of peroxidase conjugated rabbit anti-human IgM (code P215; Dako-patts, Copenhagen, Denmark) diluted 1:1000 in PBS containing 0.5% Tween 20 and 1% milkpowder (pH 7.4) was added to the wells and incubated for 1 h at 20° C. The plates were washed four times à one minute with PBS containing 0.5 M NaCl and 0.1% (vol/vol) Tween 20 (pH 7.2), and 200 μl of the substrate o-phenylenediamine (0.33 mg/ml; Kem-En-Tec, Denmark, tablets of 10 mg) in citrate buffer (pH 5) with 0.04% (vol/vol) H2O2 was added to each well. After 15 minutes protected from light, the enzymatic reaction was stopped by the addition of 50 μl of 3 M H2SO4. The optical density (OD) at 492 nm was read spectrophotometrically on an Immuno Reader, Easy reader EAR 400 AC, SLT Labinstruments, AUSTRIA. Samples were tested in duplicate and retested if the two OD values differed more than 10% from the mean. To eliminate plate-to-plate and day-to-day variations, a reference serum pool based on seven western blot positive sera were included on every plate for construction of a standard dilution curve with a two fold dilution ranging from 1:200 to 1:6400. The OD value of every sample was adjusted to this standard curve. Positive and negative control sera were included on every plate. The positive control sera were diluted 1:200, 1:400 and 1:800 on every plate to check for parallelism between the standard reference curve and the dilution curve of the positive control sera. […]
(In general: An ELISA detects its analyte on a solid surface through an enzyme-linked reagent.)

For test [2] the test system is unchanged. The test is described as follows: Indirect ELISA for IgM antibodies to full-length and truncated recombinant OspC (rOspC ELISA). The note with it: for Positive rOspCt ELISA results: B. garinii rOspCt; for diagnostic sensitivity for IgM: set of preliminary tests. As for the experimental part: Indirect ELISA for IgM Antibodies to Full-length and Truncated Recombinant OspC (rOspC ELISA)
Flat-bottom microdilution plates (Maxisorb; Nunc, Roskilde, Denmark) were coated with 100 μl of rOspC diluted in 0.05 M bicarbonate pH 9.6 for 1 hour at 20° C. on a rocker platform and thereafter overnight at 4° C. The optimum coating concentration was defined as the antigen dilution resulting in the highest ratio of the optical density (OD) between a positive and a negative control serum (P/N ratio). The plates were washed four times à one minute with PBS containing 0.5 M NaCL, and 0.1% (vol/vol) Tween 20 (pH 7.2) and unspecific protein binding was blocked with 100 μl 3% (wt/vol) milk powder in PBS for 1 hour. The plates were washed four times à one minute with PBS containing 0.5 M NaCL, and 0.1% (vol/vol) Tween 20 (pH 7.2). 100 μl of serum diluted 1:200 in PBS containing 0.1% (vol/vol) Tween 20, 0.02% NaN3 and 1% (wt/vol) milk powder was added to the wells and incubated for 2 h at 20° C. The plates were washed four times à one minute with PBS containing 0.5 M NaCL, and 0.1% (vol/vol) Tween 20 (pH 7.2) and 100 μl peroxidase conjugated rabbit anti-human immunoglobulin M (IgM) (Dakopats, Copenhagen, Denmark, code P-215) diluted 1:1000 in PBS pH 7.4 with 0.05% (vol/vol) Tween 20 and 1% (wt/vol) milk powder. After the incubation for 1 h at 20° C. the plates were washed four times à one minute with PBS containing 0.5 M NaCL, and 0.1% (vol/vol) Tween 20 (pH 7.2) and 200 μl of the substrate o-phenylenediamine (0.41 mg/ml; Sigma) in citrate buffer (pH 5) with 0.04% (vol/vol) H2O2) was added to each well. After 15 minutes protected from light, the enzymatic reaction was stopped by the addition of 50 μl of 3M H2SO4. The optical density (OD) at 492 nm was read spectrophotometrically (Immuno Reader, Easy reader EAR 400 AC—SLT Labinstruments, AUSTRIA). Samples were tested in duplicate and retested, if the two OD values differed more than 10% from the mean. To eliminate plate-to-plate and day-to-day variations, a reference serum pool based on seven western blot positive sera were included on every plate for construction of a standard dilution curve with a two fold dilution ranging from 1:200 to 1:6400. The OD value of every sample was adjusted to this standard curve. Positive and negative control sera were included on every plate. The positive control sera were diluted 1:200, 1:400 and 1:800 on every plate to check for parallelism between the standard reference curve and the dilution curve of the positive control sera.
The diagnostic cutoff OD was adjusted to be 98% specific for an IgM assay on the basis of serum samples from 100 healthy danish blood donors, and was 0.230 for the IgM assay.
In a preliminary setup, rOspCt was used in the above-described rOspC ELISA. Sera from 47 patients with EM, 50 with NB, 30 with ACA and 29 with syphilis were tested against rOspCt.
The capability of an immunological agent according to the present invention to react with sera from patients in various stages of Lyme borreliosis was evaluated against that of recombinant OspC derived from B. garinii and against conventional flagellum ELISAs (performed as described in Hansen K. et al. (1991) and Hansen K. et al. (1988)). These flagellum assays (testing for IgM and IgG antibodies to native B. burgdorferi flagellum) are commercially available, a μ-capture ELISA (DAKO, Denmark code K006), and an indirect IgG ELISA (DAKO, Denmark code K416). Both assays use flagella purified from strain DK1 belonging to the genospecies of B. afzelii. The ELISAs were performed according to the instructions of the manufacturer, and the results were expressed as optical density (OD) values. In both assays the diagnostic cut-off level was adjusted to a specificity of 98% based on the examination of 100 blood donors.

Test [3] relates to IgG reactive with OspC in patient sera. The test is described as follows: IgG rOspC ELISA combined with IgG flagellum ELISA.
[4] abbreviates: Early Lyme borreliosis (EM and NB) sera (n = 181), IgM.

In the case of “6-aminohexanoic acid-Pro-Val-Val-Ala-Glu-Ser-Pro-Lys-Lys-Pro [Peptide]”, the “OD titer compared with the rOspCfl ELISA” value in test [1] (EM and NB sera, IgM, FIGS. 1-4) is “significantly higher”. In addition, the “frequency (%) of positive sera, Peptide ELISA” value (shortened to “frequency (%) … Peptide ELISA”) in test [1] (EM sera (n = 80), IgM, cutoff OD 0.460) is “n = 26 (32.5%)”. In test [1] (EM, n = 80), the “Peptide IgM negative and Flagellum IgM negative” value is given as “n = 44 (55.00%)”; the “Peptide IgM negative and Flagellum IgM positive” value is given as “n = 10 (12.50)”; the “Peptide IgM positive and Flagellum IgM negative” value is reported as “n = 6 (7.50%)”; the “Peptide IgM positive and Flagellum IgM positive” value is on record as “n = 20 (25.00%)”. In addition, in test [1] (EM, n = 80, all sera), the “Peptide IgM negative” value was “n = 54 (67.5%)” and the “Peptide IgM positive” value is on record as “n = 26 (32.5%)”. The “frequency (%) … Peptide ELISA” value in test [1] (setting [4]) is “n = 72 (39.8%)”. Moreover, the “frequency (%) … Peptide ELISA” value in test [1] (NB sera (n = 101), IgM) is recorded as “n = 46 (45.5%)”. In test [1] (NB, n = 101), the “Decapeptide IgM negative and Flagellum IgM negative” value is on record as “n = 25 (24.75%)”; the “Decapeptide IgM negative and Flagellum IgM positive” value was “n = 30 (29.70%)”; the “Decapeptide IgM positive and Flagellum IgM negative” value was “n = 12 (11.88%)”; the “Decapeptide IgM positive and Flagellum IgM positive” value is listed as “n = 33 (32.67%)”. For the same molecule, in test [1] (NB, n = 101, all sera), the “Decapeptide IgM negative” value was “n = 55 (54.5%)” and the “Decapeptide IgM positive” value was “n = 46 (45.5%)”. The “sensitivity of the peptide ELISA relative to the rOspCfl ELISA” value in test [1] (detecting early Lyme borreliosis (stage 1 and 2)) was “approximately 86%”. For the same molecule, the “increase of overall sensitivity for IgM when adding peptide ELISA results to flagellum ELISA results” value in test [1] (first stage (EM)) amounted to 7.5%. Also, in test [1] (patients suffering from NB, FIG. 6), the “accuracy (ROC plot) compared with the rOspCfl ELISA” value is reported as “more accurate”. The “increase of overall sensitivity for IgM when adding peptide ELISA results to flagellum ELISA results” value in test [1] (second stage (NB)) worked out at 12%.

B1: rOspCt: recombinant B. garinii OspC truncate which lacks the 7 carboxyterminal amino acids (protein)
chain: CNNSGGDSASTNPDESAKGPNLTVISKKITDSNAFLLAVKEVEALLSSIDELSKAIGKKIKNDGTLDNEANRNESLIAGAYEISKLITQKLSVLNSEELKEKIKEAKDCSEKFTTKLKDSHAELGIQSVQDDNAKKAILKTHGTKDKGAKELEELFKSLESLSKAAQAALTNSVKELTNPVVAESPKKP
modifications: left off: small tags and cut ends
notes: recombinant B. garinii OspC truncate which lacks the 7 carboxyterminal amino acids
For B1, the “Positive rOspCt ELISA results” value was “n = 0 (0.00%)” in test [2] (ACA sera (N = 30), IgM); “n = 4 (4.12%)” in test [2] (EM and NB sera (n = 97), IgM); “n = 1 (2.12%)” in test [2] (EM sera (n = 47), serum panel 1, IgM, 98% specific cutoff); “n = 3 (6.00%)” in test [2] (NB sera (n = 50), serum panel 1, IgM); “n = 5 (17.24%)” in test [2] (Syphilis control sera (n = 29), IgM).

B2: rOspCfl: full-length recombinant OspC from Borrelia garinii strain DK6 (SEQ ID NO: 3), six-His fusion protein (protein, listed as Borrelia garinii)
chain: MKKNTLSAILMTLFLFISCNNSGGDSASTNPDESAKGPNLTVISKKITDSNAFLLAVKEVEALLSSIDELSKAIGKKIKNDGTLDNEANRNESLIAGAYEISKLITQKLSVLNSEELKEKIKEAKDCSEKFTTKLKDSHAELGIQSVQDDNAKKAILKTHGTKDKGAKELEELFKSLESLSKAAQAALTNSVKELTNPVVAESPKKP
modifications: six-His tag
B2: the “improvement on adding IgG rOspC ELISA results to IgG flagellum ELISA results” value in test [3] was “no significant improvement”. The “frequency (%) of positive sera, rOspCfl ELISA” value in test [2] (EM sera (n = 80), IgM, B. garinii rOspCfl, cutoff OD 0.230) is reported as “n = 45 (43.8%)”; in test [2] (setting [4]) it was “n = 94 (46.4%)”; in test [2] (NB sera (n = 101), IgM, B. garinii rOspCfl) it was “n = 49 (48.5%)”. The “rOspCfl IgM negative and Flagellum IgM negative” value in test [2] (EM, n = 80) is given as “n = 38 (47.50%)”; in test [2] (NB, n = 101) it was “n = 25 (24.75%)”. Also, the “rOspCfl IgM negative and Flagellum IgM positive” value in test [2] (EM, n = 80) is “n = 7 (8.75%)”; in test [2] (NB, n = 101) it was “n = 26 (25.74%)”. Further, the “rOspCfl IgM positive and Flagellum IgM negative” value in test [2] (EM, n = 80) was “n = 12 (15.00%)”; in test [2] (NB, n = 101) it was “n = 12 (11.88%)”. Also, the “rOspCfl IgM positive and Flagellum IgM positive” value is “n = 23 (28.75%)” in test [2] (EM, n = 80) and “n = 37 (36.63%)” in test [2] (NB, n = 101). Also, the “rOspCfl IgM negative” value is on record as “n = 45 (56.25%)” in test [2] (EM, n = 80, all sera) and “n = 52 (51.5%)” in test [2] (NB, n = 101, all sera). Further, the “rOspCfl IgM positive” value in test [2] (EM, n = 80, all sera) is “n = 35 (43.75%)”; in test [2] (NB, n = 101, all sera) it was “n = 49 (48.5%)”. Further, the “increase of overall diagnostic sensitivity for IgM when adding rOspCfl ELISA results to flagellum ELISA results” value is on record as 15% in test [2] (first stage of Lyme borreliosis (EM)) and 12% in test [2] (second stage of Lyme borreliosis (NB)). Besides, the figures for the “diagnostic sensitivity for IgM” value in test [2] (first stage of Lyme borreliosis) and in test [2] (second stage of Lyme borreliosis) were 44% and 48%, respectively.
